Laboratory results from patent US20140056903A1 (Regeneron, published 2014).
Substitutions are numbered along the chain they refer to. Numbers in names are those of the source.

B1: H1M2236N (antibody, V domains shown)
VH: EVQLLESGGNLVQPGGSLRLSCAASGFTFSSYAMTWVRQAPGKGLEWVSTISGSGTSTYYADSVKGRFTISRDNSRDTVFLQMNSLRAEDTAVYYCSKPSALRFLHWLCMDVWGQGTLVTVSS
VL: DIQMTQSPSSLSAFVGDRVTITCRASQDIRNYLDWFQQKPGKAPKSLIYAASNLQSGVPSRFGGSGSGTDFTLTINSLQPEDFVTYYCQQYNSYPPTFGGGTKVEIK
notes: chimeric, human variable and mouse constant domains (H1M)
B2: H1M2243N (antibody, V domains shown)
VH: QVQLVQSGAEVKKPGASVKVSCKASGYTFTSYGIIWVRQAPGQGLEWMGWISGYNGNTNYTQNLQGRVTMTTDTSTTTAYMELRSLRSDDTAVYYCARWGIATRPYYYYGMDVWGQGTTVTVSS
VL: B1 VL with F14S, R30T, D34A, N53S, R61K, G63S, N76S, V84A, G100P, E105D
notes: as for B1
B3: H1M2207N (antibody, V domains shown)
VH: EVQLVESGGGLVQPGRSLRLSCAASGFTFNDYAMHWVRQAPGKGLEWVSGISWNSGNIGYADSVKGRFTISRDNAKNSLYLQMNSLRAEDTALYFCARDTRMATRPFDYWGQGTLVTVSS
VL: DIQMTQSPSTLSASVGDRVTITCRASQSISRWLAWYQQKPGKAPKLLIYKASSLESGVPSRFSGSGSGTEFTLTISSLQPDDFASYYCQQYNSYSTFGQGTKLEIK
notes: as for B1
B4: H2aM2210N (antibody, mouse IgG2, V domains shown)
VH: EVQLLESGGGLVQPGGSLRVSCAASGFTFSTSAMSWVRQAPGKGLEWVSGISGIGGGSTYYADSVKGRFTISRDNSKNTLYLQMNSLRAEDTAVYFCAKFYKWNSYIFDLWGQGTMVTVSS
VL: EIVLTQSPDTLSLSPGERATLSCRASQSVSSSYFAWYQQKPGQAPRLLMYSASSRATGIPDRFSGSGSGTDFSLTISRLEPEDFAVYYCQQYGRSLTFGGGTKVEIK
notes: chimeric, mouse IgG2 Fc (H2M/H2aM); also called H2M2210N
B5: H1M2212N (antibody, V domains shown)
VH: EVQLLESGGGLVQPGGSLRLSCAASGFTFSSYAMSWVRQGPGKGLEWVSGISGSGGSTYNADSVKGRFTISRDNSKNTLYLQMNSLRAEDTAVYYCAKDSGTYWYYFDYWGQGILVTVSS
VL: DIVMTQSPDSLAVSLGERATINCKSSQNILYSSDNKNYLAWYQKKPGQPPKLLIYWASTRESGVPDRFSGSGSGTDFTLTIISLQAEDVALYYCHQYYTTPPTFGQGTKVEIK
notes: as for B1
B6: H2aM2234N (antibody, mouse IgG2, V domains shown)
VH: EVQLLESGGGLVQSGGSLRLSCAASGFSFNNYAMSWVRQAPGKGLEWVSFISGSGGSTYYADSVKGRFTISRDNSKNTLYLQMNSLRVEDTAVFYCAKDRYNYGTFFDYWGQGTLVTVSS
VL: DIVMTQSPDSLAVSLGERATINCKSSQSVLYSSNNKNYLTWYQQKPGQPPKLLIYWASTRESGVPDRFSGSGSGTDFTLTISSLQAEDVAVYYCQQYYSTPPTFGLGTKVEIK
notes: chimeric, mouse IgG2 Fc (H2M/H2aM); also called H2M2234N
B7: H4H2210N (antibody, human IgG4, V domains shown)
VH: B4 VH
VL: B4 VL

Biological target: T1, monkey GFRα3 expressed with a C-terminal myc-myc-hexahistidine tag (monkey (Mf), UniProt O60609 32-374 (human entry), limits assumed)
T1 construct: also called MfGFRα3-mmh; MfGFRα3-mmH
T1 chain: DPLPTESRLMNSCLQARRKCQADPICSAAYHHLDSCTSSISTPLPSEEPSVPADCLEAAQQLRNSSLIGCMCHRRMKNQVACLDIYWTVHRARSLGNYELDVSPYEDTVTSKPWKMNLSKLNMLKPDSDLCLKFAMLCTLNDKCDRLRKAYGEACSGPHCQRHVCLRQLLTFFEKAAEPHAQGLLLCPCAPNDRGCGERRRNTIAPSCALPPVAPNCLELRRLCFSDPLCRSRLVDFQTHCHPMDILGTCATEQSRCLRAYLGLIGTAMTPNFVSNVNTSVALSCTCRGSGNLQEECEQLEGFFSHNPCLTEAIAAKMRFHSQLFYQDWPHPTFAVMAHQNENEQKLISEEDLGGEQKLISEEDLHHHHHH
Test: SPR, Ab captured, 25C
Description: (§1) Antibodies were tested for binding to human GFRα3 expressed with either a C-terminal myc-myc-hexahistidine tag (hGFRα3-mmh; SEQ ID: 370, a C-terminal hFc tag (hGFRα3-hFc; SEQ ID:371), or a C-terminal mFc tag (hGFRα3-mFc; SEQ ID:372), as well as monkey GFRα3 expressed with a C-terminal myc-myc-hexahistidine tag (MfGFRα3-mmh; SEQ ID:373). Anti-GFRα3 antibodies were captured on either a goat anti-mouse IgG polyclonal antibody (GE Healthcare, #BR-1008-38) or a mouse anti-human IgG monoclonal antibody (GE Healthcare, #BR-1008-39) surface created through direct amine coupling to a Biacore CM5 sensor chip. Kinetic experiments were carried out using HBS-EP (10 mM HEPES, 150 mM NaCl, 3 mM EDTA, 0.05% Surfactant P20, at pH 7.4) or PBS buffer containing 0.05% v/v surfactant P20 as both the running buffer and the sample buffer. Binding to human GFRα3-mmh or monkey GFRα3-mmh was evaluated by injecting several concentrations ranging from 200 to 7.4 nM (3-fold dilutions) across the captured antibody surface. Binding to human GFRα3-mFc or human GFRα3-hFc was evaluated by injecting several concentrations ranging from 100 to 3.7 nM (3-fold dilutions) across the captured antibody surface. Antibody-antigen association was monitored for up to 4 minutes, while dissociation in buffer was monitored for up to 20 minutes. Kinetic association (kₐ) and dissociation (kd) rate constants were determined by processing and fitting the data to a 1:1 binding model using Scrubber 2.0c curve fitting software. Binding dissociation equilibrium constants (KD) and dissociative half-lives (t_{1/2}) were calculated from the kinetic rate constants as: KD (M)=kd/kₐ and t_{1/2} (min)=[ln 2/(60*kd)].

Binder | Kd | koff | kon | t1/2
B1 | 0.97 nM | 0.000286 s⁻¹ | 296000 M⁻¹ s⁻¹ | 40 min
B2 | 10.2 nM | 0.000658 s⁻¹ | 64600 M⁻¹ s⁻¹ | 18 min
B3 | 97.2 nM | 0.00388 s⁻¹ | 39900 M⁻¹ s⁻¹ | 3 min
B4 | 28.9 nM | 0.0012 s⁻¹ | 41600 M⁻¹ s⁻¹ | 10 min
B5 | 0.293 nM | 0.000112 s⁻¹ | 384000 M⁻¹ s⁻¹ | 103 min
B6 | 1.34 nM | 0.000571 s⁻¹ | 427000 M⁻¹ s⁻¹ | 20 min

The binders below were run against T2, human GFRα3 expressed with a C-terminal myc-myc-hexahistidine tag (human, UniProt O60609 32-374, biotinylated (sites not given) in ELISA format 2 and in the Octet cross-competition; not in SPR) (assay: SPR, Ab captured, 25C).
T2 construct: also called hGFRα3-mmh; hGFRα3-mmH
Description: as §1

Binder | Kd | koff | kon | t1/2
B1 | 0.275 nM | 0.000208 s⁻¹ | 760000 M⁻¹ s⁻¹ | 56 min
B2 | 2.04 nM | 0.000261 s⁻¹ | 128000 M⁻¹ s⁻¹ | 44 min
B3 | 16 nM | 0.0009 s⁻¹ | 56100 M⁻¹ s⁻¹ | 13 min
B4 | 12.8 nM | 0.000863 s⁻¹ | 67300 M⁻¹ s⁻¹ | 13 min
B5 | 0.197 nM | 0.000158 s⁻¹ | 800000 M⁻¹ s⁻¹ | 73 min
B6 | 1.08 nM | 0.000711 s⁻¹ | 657000 M⁻¹ s⁻¹ | 16 min

The binders below were run against T3, human GFRα3 expressed with a C-terminal hFc tag (human) (assay: SPR, Ab captured, 25C).
T3 construct: also called hGFRα3-hFc
Description: as §1

Binder | Kd | koff | kon | t1/2
B1 | 0.0137 nM | 1.76e-05 s⁻¹ | 1.28e+06 M⁻¹ s⁻¹ | 11 h
B2 | ≤ 0.0075 nM | ≤ 1e-06 s⁻¹ | 134000 M⁻¹ s⁻¹ | 192 h
B3 | 0.163 nM | 2.6e-05 s⁻¹ | 159000 M⁻¹ s⁻¹ | 7.4 h
B4 | 0.22 nM | 3.69e-05 s⁻¹ | 168000 M⁻¹ s⁻¹ | 5.22 h
B5 | 0.0128 nM | 1.44e-05 s⁻¹ | 1.12e+06 M⁻¹ s⁻¹ | 13.3 h
B6 | 0.101 nM | 9.6e-05 s⁻¹ | 950000 M⁻¹ s⁻¹ | 2 h

Biological target: T1, monkey GFRα3 expressed with a …
Test: SPR, Ab captured, 37C
Description: as §1

Binder | Kd | koff | kon | t1/2
B1 | 2.58 nM | 0.00112 s⁻¹ | 434000 M⁻¹ s⁻¹ | 10 min
B2 | 54.7 nM | 0.00275 s⁻¹ | 50200 M⁻¹ s⁻¹ | 4 min
B3 | 145 nM | 0.00663 s⁻¹ | 45800 M⁻¹ s⁻¹ | 2 min
B4 | 76.4 nM | 0.00618 s⁻¹ | 80900 M⁻¹ s⁻¹ | 2 min
B5 | 0.294 nM | 0.00026 s⁻¹ | 884000 M⁻¹ s⁻¹ | 44 min
B6 | 4.91 nM | 0.00211 s⁻¹ | 429000 M⁻¹ s⁻¹ | 5 min

Each binder was assayed against T2, human GFRα3 expressed with a C-terminal … (assay: SPR, Ab captured, 37C).
Description: as §1

Binder | Kd | koff | kon | t1/2
B1 | 0.532 nM | 0.00055 s⁻¹ | 1.03e+06 M⁻¹ s⁻¹ | 21 min
B2 | 4.35 nM | 0.000595 s⁻¹ | 137000 M⁻¹ s⁻¹ | 19 min
B3 | 10.8 nM | 0.00144 s⁻¹ | 133000 M⁻¹ s⁻¹ | 8 min
B4 | 15.8 nM | 0.00335 s⁻¹ | 212000 M⁻¹ s⁻¹ | 3 min
B5 | 0.297 nM | 0.000303 s⁻¹ | 1.02e+06 M⁻¹ s⁻¹ | 38 min
B6 | 3.43 nM | 0.00272 s⁻¹ | 793000 M⁻¹ s⁻¹ | 4 min

These binders were tested against T3, human GFRα3 expressed with a C-terminal … (assay: SPR, Ab captured, 37C).
Description: as §1

Binder | Kd | koff | kon | t1/2
B1 | 0.061 nM | 9.65e-05 s⁻¹ | 1.58e+06 M⁻¹ s⁻¹ | 120 min
B2 | 0.117 nM | 2.18e-05 s⁻¹ | 186000 M⁻¹ s⁻¹ | 529 min
B3 | 0.531 nM | 0.000108 s⁻¹ | 203000 M⁻¹ s⁻¹ | 107 min
B4 | 0.242 nM | 7.66e-05 s⁻¹ | 316000 M⁻¹ s⁻¹ | 151 min
B5 | 0.0413 nM | 6.17e-05 s⁻¹ | 1.49e+06 M⁻¹ s⁻¹ | 187 min
B6 | 0.116 nM | 0.000146 s⁻¹ | 1.26e+06 M⁻¹ s⁻¹ | 79 min

These binders were tested against T4, human GFRα3 on HEK293/hGFRα3/hRET/SRE-luc cells (human, UniProt O60609 32-382) (assay: cell-based or functional assay).
T4 sequence: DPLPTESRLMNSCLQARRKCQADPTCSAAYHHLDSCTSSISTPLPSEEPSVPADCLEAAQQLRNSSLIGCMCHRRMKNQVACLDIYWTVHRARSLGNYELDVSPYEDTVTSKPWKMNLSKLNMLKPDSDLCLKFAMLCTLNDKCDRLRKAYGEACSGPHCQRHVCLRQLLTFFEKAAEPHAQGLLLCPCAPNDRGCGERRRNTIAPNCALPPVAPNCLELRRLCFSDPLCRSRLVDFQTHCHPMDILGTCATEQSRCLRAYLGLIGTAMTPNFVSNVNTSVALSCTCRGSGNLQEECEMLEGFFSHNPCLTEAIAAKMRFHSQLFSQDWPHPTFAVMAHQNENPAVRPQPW

Binder | IC50 (SRE-luc, HEK293/hGFRα3/hRET cells, 100 pM hARTEMIN-mmH)
B7 | 2.9 nM
